Our source for the other: Emax, vehicle-subtracted BRET ratio and percent of reference values is article PMC11297201.

In this assay the target is β-arrestin2 (UniProt P32121). Kind of assay: BRET, MOR-Nluc and β-arrestin2-Venus. Particulars: for other: Emax, vehicle-subtracted BRET ratio: reference: vehicle. Background: In BRET a luciferase serves as donor, and the signal depends on an acceptor being close.

Turning to “mu-opioid receptor (MOR, mMOR) (from UniProt P42866) DAMGO, 10 min”, the other: Emax, vehicle-subtracted BRET ratio (sites T370,S375,T376,T379) was 0.07 BRET ratio. As to “mu-opioid receptor (MOR, mMOR) (from UniProt P42866) morphine”, the percent of reference result (reference: DAMGO, sites T376,T379) is “weaker; reference 100”. With “mu-opioid receptor (MOR, mMOR) (from UniProt P42866) morphine, 10 min”, for the setting “sites S375”, the other: Emax, vehicle-subtracted BRET ratio is 0.008 BRET ratio.
